{
  "source": "patent US20200397816A1",
  "about": "“METHODS TO TREAT INFLAMMATORY AND SMOOTH MUSCLE CELL PROLIFERATION DISORDERS” (THE TRUSTEES OF INDIANA UNIVERSITY, priority 2019, published 2020)",
  "molecules": {"B1": {"name": "EMAP II: 6x-His tagged recombinant EMAP II, cleaved C-terminal peptide of AIMP1 (SEQ ID NO: 2), pro-inflammatory cytokine (protein)", "chain": "IAGSADSKPIDVSRLDLRIGCIITARKHPDADSLYVEEVDVGEIAPRTVVSGLVNHVPLEQMQNRMVILLCNLKPAKMRGVLSQAMVMCASSPEKIEILAPPNGSVPGDRITFDAFPGEPDKELNPKKKIWEQIQPDLHTNDECVATYKGVPFEVKGKGVCRAQTMSNSGIK"}},
  "type_in_all_cases": "cell-based, human",
  "key": {"[1]": {"system": "pSphK1", "assay": "pSphK1 immunofluorescence in THP-1 macrophages", "conditions": "THP1 macrophages; 1 hour EMAP II", "protocol": "Few passages after thawing of THP-1 cell line, cells were seeded in Nunc Lab-Tek™ II 4-well imaging plates and treated with 100 nM Phorbol myristate acetate (InvivoGen, CA) for 3 days allowing THP-1 monocytes to differentiate into macrophages.\nPrimary hPASMCs cells or human THP-1 macrophages were seeded in Nunc Lab-Tek™ II 4-well imaging plates (Thermo Fisher Scientific) chamber well slides and cultured in growth medium. After the serum starvation cells were stimulated with EMAP II. Treated cells were rinsed with PBS and fixed with 4% paraformaldehyde at room temperature for 15 min and permeabilized with 0.1% Triton X-100 at room temperature for 10 min After washing with PBS three times, the cells were incubated with EGR1, 1amin, or pSphK1 antibody at 40C overnight. The cells were then rinsed with PBS three times and subsequently incubated with respective secondary antibody conjugated with Alex Fluor 647 and 488 or Phalloidin 488 at room temperature for 1 h. The cells were rinsed with PBS three times and coverslips were mounted with SlowFade Gold Antifade Mountant with DAPI (Thermo Fischer Scientific) and the cells were examined under Olympus microscope with 40× for EGR1 expression and with 60× for pSphK1 water immersion. […]"}, "[2]": {"system": "EGR1", "assay": "EGR1 protein western blot and immunofluorescence in hPASMC", "conditions": "SMCs", "protocol": "RAW 264.7 (ATCC) mouse macrophages and Human Embryonic Kidney (HEK) 293T cells were cultured in DMEM media with 10% fetal bovine serum […] and glutamine HEPES buffer and beta-mercaptoethanol were added to the growth medium used for RAW 264.7 macrophages. Primary human pulmonary artery smooth muscle cells (hPASMC) purchased from Lonza (Walkersville, Md.) were cultured in complete growth medium containing smooth muscle growth media-2 (SmGM-2) with 10% FBS and growth factors provided as a kit by the supplier (Lonza, (Walkersville, Md.). THP-1 human monocyte cells were cultured in RPMI 1640 with 10% FBS and glutamine Cells were cultured in a humidified atmosphere with 5% CO2 at 370 C. For all studies passages 5-14 were used for RAW 264.7 and passages 5-10 were used for hPASMCs. For treatment studies, subconfluent cells plated in multi-well plates were serum starved and if required, pretreated for with inhibitors before stimulating with 2 μg/mL recombinant EMAP II.\nAfter appropriate treatments, protein lysates were prepared by using RIPA buffer supplemented with phosphatase and protease inhibitors (Thermo Fischer Scientific). Alpha-tubulin was used as a loading control. For nuclear and cytoplasmic fractionation, NE-PER kit from Thermo Fischer Scientific was used. Western blots were performed according to standard methods and quantified using densitometry using Image Studio Lite software from LI-COR Biosciences.\nPrimary hPASMCs cells or human THP-1 macrophages were seeded in Nunc Lab-Tek™ II 4-well imaging plates (Thermo Fisher Scientific) chamber well slides and cultured in growth medium. After the serum starvation cells were stimulated with EMAP II. Treated cells were rinsed with PBS and fixed with 4% paraformaldehyde at room temperature for 15 min and permeabilized with 0.1% Triton X-100 at room temperature for 10 min After washing with PBS three times, the cells were incubated with EGR1, 1amin, or pSphK1 antibody at 40C overnight. The cells were then rinsed with PBS three times and subsequently incubated with respective secondary antibody conjugated with Alex Fluor 647 and 488 or Phalloidin 488 at room temperature for 1 h. The cells were rinsed with PBS three times and coverslips were mounted with SlowFade Gold Antifade Mountant with DAPI (Thermo Fischer Scientific) and the cells were examined under Olympus microscope with 40× for EGR1 expression and with 60× for pSphK1 water immersion.\nKnockdown of endogenous EGR1 was carried out by transfecting with 25 nM final concentration of ON-TARGETplus siRNAs specific for EGR1 or non-targeting control purchased from GE Dharmacon (Lafayette,CO) using Viromer Blue (Lipocalyx) per manufacturer's instructions. Cells were stimulated with EMAP II 48 h post-transfection.\nRAW 264.7 (ATCC) mouse macrophages and HEK-293T (ATCC) cells were cultured in DMEM media with 10% (v/v) fetal bovine serum (FBS) and 2 mM glutamine HEPES buffer and beta-mercaptoethanol were added to the growth medium used for RAW 264.7 macrophages. […]"}, "[3]": {"system": "SphK1", "assay": "SphK1 protein western blot in hPASMC", "conditions": "SMCs; EMAP II 6 hours", "protocol": "RAW 264.7 (ATCC) mouse macrophages and Human Embryonic Kidney (HEK) 293T cells were cultured in DMEM media with 10% fetal bovine serum […] and glutamine HEPES buffer and beta-mercaptoethanol were added to the growth medium used for RAW 264.7 macrophages. […]\n(§1) After appropriate treatments, protein lysates were prepared by using RIPA buffer supplemented with phosphatase and protease inhibitors (Thermo Fischer Scientific). […] Western blots were performed according to standard methods and quantified using densitometry using Image Studio Lite software from LI-COR Biosciences. […]\nas §1, with “Fisher” for “Fischer”"}},
  "note": "“Also recorded” adds a separate entry of the source.",
  "data": [
    {"molecule": "B1", "values": [
      {"measurement": "pSphK1 localization to the plasma membrane", "setting": "[1]", "value": "stimulated translocation; also recorded: elevated levels of pSPHK1"},
      {"measurement": "EGR1 expression in whole cell lysates", "setting": "[2]; 1 to 2 hours following EMAP II", "value": "significant upregulation"},
      {"measurement": "upregulation of nuclear EGR1 expression", "setting": "[2]; EMAP II 2 μg/mL, at 1 hour", "value": 2.5, "unit": "fold"},
      {"measurement": "nuclear EGR1 expression by immunofluorescence vs control", "setting": "[2]; EMAP II 1 hour", "value": "significantly elevated"},
      {"measurement": "SphK1 protein expression", "setting": "[3]", "value": "significant overexpression; also recorded: significantly increased"}
    ]}
  ]
}
